Target: AGR2 (human, endogenous in PDAC cells) (UniProt O95994)

“POLR2A (human, endogenous in PDAC cells)” was tested, and the “phosphorylation levels of Ser2/5 residues (p-POLR2A^ser2/5) after AGR2 siRNA transfection, western blot” value was “AGR2 downregulation (by siRNA transfection) reduces the phosphorylation levels of Ser2/5 residues (p-POLR2A^ser2/5), but not the POLR2A expression”.
